# Measured values as given in patent US20040110684.
# B1: endothelial nitric oxide synthase (eNOS), endogenous, human umbilical vein endothelial cells (HUVECs) (protein)
# chain: GNLKSVAQEPGPPCGLGLGLGLGLCGKQGPATPAPEPSRAPASLLPPAPEHSPPSSPLTQPPEGPKFPRVKNWEVGSITYDTLSAQAQQDGPCTPRRCLGSLVFPRKLQGRPSPGPPAPEQLLSQARDFINQYYSSIKRSGSQAHEQRLQEVEAEVAATGTYQLRESELVFGAKQAWRNAPRCVGRIQWGKLQVFDARDCRSAQEMFTYICNHIKYATNRGNLRSAITVFPQRCPGRGDFRIWNSQLVRYAGYRQQDGSVRGDPANVEITELCIQHGWTPGNGRFDVLPLLLQAPDDPPELFLLPPELVLEVPLEHPTLEWFAALGLRWYALPAVSNMLLEIGGLEFPAAPFSGWYMSTEIGTRNLCDPHRYNILEDVAVCMDLDTRTTSSLWKDKAAVEINVAVLHSYQLAKVTIVDHHAATASFMKHLENEQKARGGCPADWAWIVPPISGSLTPVFHQEMVNYFLSPAFRYQPDPWKGSAAKGTGITRKKTFKEVANAVKISASLMGTVMAKRVKATILYGSETGRAQSYAQQLGRLFRKAFDPRVLCMDEYDVVSLEHETLVLVVTSTFGNGDPPENGESFAAALMEMSGPYNSSPRPEQHKSYKIRFNSISCSDPLVSSWRRKRKESSNTDSAGALGTLRFCVFGLGSRAYPHFCAFARAVDTRLEELGGERLLQLGQGDELCGQEEAFRGWAQAAFQAACETFCVGEDAKAAARDIFSPKRSWKRQRYRLSAQAEGLQLLPGLIHVHRRKMFQATIRSVENLQSSKSTRATILVRLDTGGQEGLQYQPGDHIGVCPPNRPGLVEALLSRVEDPPAPTEPVAVEQLEKGSPGGPPPGWVRDPRLPPCTLRQALTFFLDITSPPSPQLLRLLSTLAEEPREQQELEALSQDPRRYEEWKWFRCPTLLEVLEQFPSVALPAPLLLTQLPLLQPRYYSVSSAPSTHPGEIHLTVAVLAYRTQDGLGPLHYGVCSTWLSQLKPGDPVPCFIRGAPSFRLPPDPSLPCILVGPGTGIAPFRGFWQERLHDIESKGLQPTPMTLVFGCRCSQLDHLYRDEVQNAQQRGVFGRVLTAFSREPDNPKTYVQDILRTELAAEVHRVLCLERGHMFVCGDVTMATNVLQTVQRILATEGDMELDEAGDVIGVLRDQQRYHEDIFGLTLRTQEVTSRIRTQSFSLQERQLRGAVPWAFDPPGSDTNSP
# Target: synthetic peptides derived from the caveolin scaffolding domain (CSD)
protein,measurement,value
B1,"phosphorylation of eNOS (Ser1177) in atorvastatin-treated HUVECs, immunoblot",blocked the phosphorylation of eNOS
